These results are taken from PMC8810855.

This assay addresses Arp2/3 complex (bovine brain) (bovine) (UniProt P61157). Put plainly: ITC; full-length Arpin in the syringe, ATP-bound Arp2/3 complex in the cell; 25 °C; Arp buffer (20 mM HEPES pH 7.5, 100 mM KCl, 1 mM MgCl2, 1 mM EGTA, 1 mM DTT) with 0.2 mM ATP; one-site isotherm. Background: In ITC the heat of successive injections is recorded.

One may read the Kd as the constant that tells how readily two partners part at equilibrium. A low value points to higher affinity. A word on the stoichiometry N: it is a count of units in the complex or per binding partner. Take “full-length human Arpin (from UniProt Q7Z6K5 1-226) (natural protein)”: the Kd was 1240 nM and the stoichiometry N is 1.06.
